In publication PMC9287160:

Target: human integrin αMβ2 headpiece fragment, P11215;P05107
Experiment: BLI competition assay
Conditions: chain shown with the change; 20 nM αMβ2 HP preincubated with 10-fold molar excess of nanobody variant; immobilized biotinylated avi-tagged WT hCD11bNb1; signal is HP binding to the sensor …; parent: est. 0.31; read off a plot

Row | Binder | response [nm]
1 | nanobody hCD11bNb1 (His-tagged) N101A (protein) QVQLVETGGGLVQAGGSLRLSCAASGNINSFNAMGWFRQAPGKQRELVAAITFGGRTNYADSVKGRFTISRDNTKGSVYLQMNSLKPEDTAVYYCAASEANLLTGVWHYWGRGTQVTVSS | 1.2
2 | nanobody hCD11bNb1 (His-tagged) N30A (protein) QVQLVETGGGLVQAGGSLRLSCAASGNIASFNAMGWFRQAPGKQRELVAAITFGGRTNYADSVKGRFTISRDNTKGSVYLQMNSLKPEDTAVYYCAASENNLLTGVWHYWGRGTQVTVSS | 0.98
3 | nanobody hCD11bNb1 (His-tagged) I29A (protein) QVQLVETGGGLVQAGGSLRLSCAASGNANSFNAMGWFRQAPGKQRELVAAITFGGRTNYADSVKGRFTISRDNTKGSVYLQMNSLKPEDTAVYYCAASENNLLTGVWHYWGRGTQVTVSS | 0.45
4 | nanobody hCD11bNb1 (His-tagged) F32A (protein) QVQLVETGGGLVQAGGSLRLSCAASGNINSANAMGWFRQAPGKQRELVAAITFGGRTNYADSVKGRFTISRDNTKGSVYLQMNSLKPEDTAVYYCAASENNLLTGVWHYWGRGTQVTVSS | 1.1
5 | nanobody hCD11bNb1 (His-tagged) F54A (protein) QVQLVETGGGLVQAGGSLRLSCAASGNINSFNAMGWFRQAPGKQRELVAAITAGGRTNYADSVKGRFTISRDNTKGSVYLQMNSLKPEDTAVYYCAASENNLLTGVWHYWGRGTQVTVSS | 1.2
